Measurements: patent US7919464B2, “Use of a peptide that interacts with αvβ3 integrin of endothelial cell” (Kyungpook National University Industry-Academic Cooperation …, priority 2003, dated 2011)

Assays:
[1] = tested on: HUVECs; experiment: HUVECs adhesion to plates coated with βig-h3, its fas-1 domains or mutants; assay type: cell-based, human; conditions: 10 μg/ml protein coated on plate; attached cells by absorbance at 405 nm; control BSA
Protocol: Cell adhesion assay was performed according to the method described by Kim, J.-E. et al., J. Biol. Chem., 277:4615946165, 2002. For this purpose, 10 μg/ml of each of the recombinant proteins (βig-h3 His-β-b, βig-h3 D-I, βig-h3 D-II, βig-h3 D-III and βig-h3 D-IV) prepared in Example 1 was placed into a flat-bottomed 96-well ELISA (enzyme-linked immunosorbent assay) plate (Costar, Corning Inc., NY) and then incubated overnight at 4° C., to coat the surface of the plate. As a control, 2% BSA was coated on the plate. Then, the plate was treated with PBS (phosphate-buffered saline) containing 2% BSA, and blocked at room temperature for one hour.
Meanwhile, HUVECs (human umbilical vein endothelial cells; Clonetics, San Diego, Calif.) were incubated in EGM medium (Clonetics, San Diego, Calif.) containing 2% FBS (Fetal Bovine Serum) under a condition of 37° C. and 5% CO2. The incubated cells were suspended in medium at a density of 3×10^5 cells/ml, and 0.1 ml of the cell suspension was added to each well of the plate. Next, the cells were incubated at 37° C. for 30 minutes and washed one time with PBS buffer to remove cells which had not been attached to the plate. Attached cells were added with 50 mM citrate buffer (pH 5.0) containing 3.75 mM p-nitrophenyl-N-acetyl β-D-glycosaminide and 0.25% Triton X-100, and incubated at 37° C. for one hour. Thereafter, 50 mM glycine buffer (pH 10.4) containing 5 mM EDTA was added to block the activity of the enzyme. The absorbance was measured at a 405-nm in a Bio-Rad model 550 microplate reader. Here, the higher the number of cells adhered to the plate, the higher the absorbance.
Each of the deletion mutants was generated by PCR using a cDNA template encoding the fourth fas-1 domain (SEQ ID NO: 5) (Kim, J.-E. et al., J. Biol. Chem., 275:30907-30915, 2000). Each of the PCR-amplified DNA fragments was cloned into the EcoRV/Xhol sites of the pET-29b(+) vector (Novagen; Madison, Wis.). The mutations were confirmed by sequence analysis, and the deletion mutants were expressed and purified according to a prior method (Kim, J.-E., et al., J. Cell. Biochem., 77:169-178, 2000). Thereafter, the cell adhesion activity of each of the deletion mutants was tested in the same manner as in Example 2.
Previously, the present inventors reported that an YH motif, which contains tyrosine-histidine residues highly conserved in the fragment corresponding to amino acids 548-614 of SEQ ID NO: 1, and several leucine and isoleucine residues adjacent to the tyrosine-histidine residues, binds to the αvβ5 integrin (Kim, J.-E., et al., J. Biol. Chem., 277:46159-46165, 2002). Thus, the present inventors suspected that the YH motif may also interact with the αvβ3 integrin to mediate endothelial cell adhesion. For this reason, in the present invention, the tyrosine-histidine residues conserved in the fas-1 domains, and/or the leucine and isolucine residues adjacent to the tyrosine-histidine residues, were substituted in various combinations by alanine or serine (Kim, J.-E., et al., J. Biol. Chem. 277:4615946165, 2002)(see FIG. 4b). The amino acid sequences of the prepared YH motif mutants are shown in SEQ ID NO: 17 to SEQ ID NO: 22. The mutations were confirmed by sequence analysis. Then, the substitution mutants were expressed and purified according to a known method (Kim, J.-E., et al., J. Cell. Biochem., 77:169-178, 2000). The substitution mutants were tested for their cell adhesion activity according to the same manner as in Example 2.

[2] = tested on: β3/293 cells (HEK293 cells transfected with human β3 integrin expression vector); experiment: Adhesion of β3/293 cells to βig-h3 and its inhibition; assay type: cell-based; conditions: plate coated with βig-h3
Protocol: (§1) To construct a human β3 integrin expression vector, RT-PCR was performed using a human placenta poly(A)^+ RNA as a template, thereby generating a 2.4-kb β3 cDNA (Chandrika, S. K. et al., J. Biol. Chem., 272:16390-16397, 1997). The amplified β3 cDNA was digested with HindIII/XbaI, and then cloned into the pcDNA3 vector (Invitrogen). The resulting vector was named “β3/pcDNA3”. Then, 1 μg of the β3/pcDNA3 vector was introduced into HEK293 cells (ATCC, catalog No. CRL 1573) using lipofectamin (Gibco). A control was introduced with a pcDNA3 vector containing no human β3 cDNA. Since all the vectors contain a G418 selection marker, the stable transfected cells were screened using 1 mg/ml of G418. The cell transfected with the β3/pcDNA3 vector was named “β3/293”, and the cell transfected with the pcDNA3 vector (control) was named “pc/293”. Each of the screened transfectants was incubated in DMEM (Dulbecco's Modified Eagle Medium) containing 10% FBS, streptomycin and penicillin. Then, cell adhesion assay was performed in the same manner as in Example 2.
In the present invention, to further confirm that βig-h3 mediates endothelial cell adhesion through the αvβ3 integrin, cell adhesion assay using antibodies that block the function of integrins was performed in the same manner as in Example 3-1. […]

[3] = tested on: pc/293 cells (HEK293 cells transfected with pcDNA3 vector); experiment: Adhesion of pc/293 cells to βig-h3; assay type: cell-based, human; conditions: plate coated with βig-h3; control transfectant
Protocol: as §1

B1: βig-h3: recombinant human βig-h3 protein that expresses all of four fas-1 domains; biotinylated form used in binding assay (protein)
chain: YQRKICGKSTVISYECCPGYEKVPGEKGCPAALPLSNLYETLGVVGSTTTQLYTDRTEKLRPEMEGPGSFTIFAPSNEAWASLPAEVLDSLVSNVNIELLNALRYHMVGRRVLTDELKHGMTLTSMYQNSNIQIHHYPNGIVTVNCARLLKADHHATNGVVHLIDKVISTITNNIQQIIEIEDTFETLRAAVAASGLNTMLEGNGQYTLLAPTNEAFEKIPSETLNRILGDPEALRDLLNNHILKSAMCAEAIVAGLSVETLEGTTLEVGCSGDMLTINGKAIISNKDILATNGVIHYIDELLIPDSAKTLFELAAESDVSTAIDLFRQAGLGNHLSGSERLTLLAPLNSVFKDGTPPIDAHTRNLLRNHIIKDQLASKYLYHGQTLETLGGKKLRVFVYRNSLCIENSCIAAHDKRGRYGTLFTMDRVLTPPMGTVMDVLKGDNRFSMLVAAIQSAGLTETLNREGVYTVFAPTNEAFRALPPRERSRLLGDAKELANILKYHIGDEILVSGGIGALVRLKSLQGDKLEVSLKNNVVSVNKEPVAEPDIMATNGVVHVITNVLQPPANRPQERGDELADSALEI
endothelial cell (HUVECs) adhesion activity [1]: mediated the adhesion of endothelial cells | adhesion of β3/293 cells to βig-h3 [2]: strongly adhered | adhesion of pc/293 cells to βig-h3 [3]: not adhered
